What was measured:
c-Src SH2 = test: SH2 binding enrichment of the phosphorylated peptide, bacterial display (enrichment ratio); higher = better substrate or ligand; peptides without Tyr show the background
SHP2-C SH2 = test: as above
Grb2 SH2 = Grb2 SH2 (UniProt P62993); test: as above
Hck = Hck (UniProt P08631); test: phosphorylation enrichment, bacterial display (enrichment ratio); higher = better substrate or ligand; peptides without Tyr show the background
Fer (mouse) = test: as above
EPHB1 = EPHB1 (UniProt P54762); test: as above
Chain of EPHB1 (P54762 whole entry, looked up): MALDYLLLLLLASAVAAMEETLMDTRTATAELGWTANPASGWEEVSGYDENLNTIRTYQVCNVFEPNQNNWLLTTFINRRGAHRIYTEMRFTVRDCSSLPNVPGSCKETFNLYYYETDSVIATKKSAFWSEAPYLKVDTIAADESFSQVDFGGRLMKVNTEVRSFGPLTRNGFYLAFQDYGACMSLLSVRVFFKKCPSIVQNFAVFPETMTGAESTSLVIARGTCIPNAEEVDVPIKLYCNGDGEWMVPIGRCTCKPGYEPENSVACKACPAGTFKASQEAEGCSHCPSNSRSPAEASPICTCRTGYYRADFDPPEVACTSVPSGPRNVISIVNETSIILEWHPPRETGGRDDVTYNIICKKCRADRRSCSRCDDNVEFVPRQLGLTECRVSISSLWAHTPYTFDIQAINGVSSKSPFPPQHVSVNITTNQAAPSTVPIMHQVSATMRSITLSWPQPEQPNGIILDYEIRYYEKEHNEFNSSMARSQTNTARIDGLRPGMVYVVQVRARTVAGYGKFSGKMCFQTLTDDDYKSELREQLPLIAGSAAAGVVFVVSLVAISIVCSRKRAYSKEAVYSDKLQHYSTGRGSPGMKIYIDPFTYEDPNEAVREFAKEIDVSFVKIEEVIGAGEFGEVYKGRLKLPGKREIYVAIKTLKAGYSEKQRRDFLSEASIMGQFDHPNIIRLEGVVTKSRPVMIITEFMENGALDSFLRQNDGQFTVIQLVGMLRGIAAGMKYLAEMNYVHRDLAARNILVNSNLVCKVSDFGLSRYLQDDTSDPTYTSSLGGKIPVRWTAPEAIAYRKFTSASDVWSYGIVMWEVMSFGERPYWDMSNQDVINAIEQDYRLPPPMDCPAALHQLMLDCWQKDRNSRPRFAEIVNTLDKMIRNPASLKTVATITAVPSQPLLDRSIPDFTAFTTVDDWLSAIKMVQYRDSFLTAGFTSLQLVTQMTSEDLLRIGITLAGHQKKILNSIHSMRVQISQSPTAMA

c-Src = test: as above
FGFR1 = FGFR1 (UniProt P11362); test: as above
Fyn = Fyn (UniProt P06241); test: as above
Chain of Fyn (P06241 whole entry, looked up): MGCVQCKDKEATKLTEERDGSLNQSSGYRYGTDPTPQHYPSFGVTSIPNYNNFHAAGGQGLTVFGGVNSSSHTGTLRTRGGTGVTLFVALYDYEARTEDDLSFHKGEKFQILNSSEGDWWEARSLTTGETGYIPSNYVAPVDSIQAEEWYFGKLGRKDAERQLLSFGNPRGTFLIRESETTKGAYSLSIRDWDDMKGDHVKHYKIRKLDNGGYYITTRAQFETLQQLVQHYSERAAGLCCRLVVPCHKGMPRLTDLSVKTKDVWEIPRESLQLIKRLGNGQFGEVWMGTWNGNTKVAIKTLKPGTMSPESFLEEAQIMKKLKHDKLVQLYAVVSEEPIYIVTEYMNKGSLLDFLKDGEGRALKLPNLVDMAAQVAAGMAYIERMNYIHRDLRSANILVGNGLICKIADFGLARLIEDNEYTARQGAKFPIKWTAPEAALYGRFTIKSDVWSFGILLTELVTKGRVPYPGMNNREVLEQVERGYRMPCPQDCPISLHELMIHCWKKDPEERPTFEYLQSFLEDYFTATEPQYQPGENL

EPHB2 = EPHB2 (UniProt P29323); test: as above
Chain of EPHB2 (P29323 whole entry, looked up): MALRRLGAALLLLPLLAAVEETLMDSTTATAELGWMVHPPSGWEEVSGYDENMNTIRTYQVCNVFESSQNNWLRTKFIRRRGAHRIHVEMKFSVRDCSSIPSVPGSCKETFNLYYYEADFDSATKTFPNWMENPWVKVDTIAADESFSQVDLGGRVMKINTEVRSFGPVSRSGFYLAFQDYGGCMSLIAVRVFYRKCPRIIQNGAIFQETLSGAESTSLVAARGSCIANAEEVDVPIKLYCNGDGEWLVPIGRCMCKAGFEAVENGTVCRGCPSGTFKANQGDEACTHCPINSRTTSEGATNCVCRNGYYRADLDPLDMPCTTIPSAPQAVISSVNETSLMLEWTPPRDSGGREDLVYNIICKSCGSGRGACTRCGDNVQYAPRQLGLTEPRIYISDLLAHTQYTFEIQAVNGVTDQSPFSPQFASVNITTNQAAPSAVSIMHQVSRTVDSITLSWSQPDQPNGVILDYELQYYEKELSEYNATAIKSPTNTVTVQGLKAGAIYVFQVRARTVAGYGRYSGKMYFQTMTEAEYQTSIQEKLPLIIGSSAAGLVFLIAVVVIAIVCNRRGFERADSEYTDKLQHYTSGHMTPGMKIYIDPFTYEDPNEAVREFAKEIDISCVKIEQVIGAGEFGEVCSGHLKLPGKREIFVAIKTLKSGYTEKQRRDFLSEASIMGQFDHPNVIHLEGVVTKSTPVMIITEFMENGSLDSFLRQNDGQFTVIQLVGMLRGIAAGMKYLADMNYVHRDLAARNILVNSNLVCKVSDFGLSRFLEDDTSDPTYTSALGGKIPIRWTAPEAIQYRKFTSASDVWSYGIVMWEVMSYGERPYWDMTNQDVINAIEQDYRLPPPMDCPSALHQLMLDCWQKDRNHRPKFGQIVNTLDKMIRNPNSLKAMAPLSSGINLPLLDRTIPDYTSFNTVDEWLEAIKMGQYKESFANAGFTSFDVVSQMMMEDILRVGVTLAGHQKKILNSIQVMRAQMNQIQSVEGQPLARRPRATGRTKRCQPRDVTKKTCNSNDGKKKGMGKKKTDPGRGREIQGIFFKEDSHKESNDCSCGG

AncSZ = test: as above
MERTK = MERTK (UniProt Q12866); test: as above
Chain of MERTK (Q12866 whole entry, looked up): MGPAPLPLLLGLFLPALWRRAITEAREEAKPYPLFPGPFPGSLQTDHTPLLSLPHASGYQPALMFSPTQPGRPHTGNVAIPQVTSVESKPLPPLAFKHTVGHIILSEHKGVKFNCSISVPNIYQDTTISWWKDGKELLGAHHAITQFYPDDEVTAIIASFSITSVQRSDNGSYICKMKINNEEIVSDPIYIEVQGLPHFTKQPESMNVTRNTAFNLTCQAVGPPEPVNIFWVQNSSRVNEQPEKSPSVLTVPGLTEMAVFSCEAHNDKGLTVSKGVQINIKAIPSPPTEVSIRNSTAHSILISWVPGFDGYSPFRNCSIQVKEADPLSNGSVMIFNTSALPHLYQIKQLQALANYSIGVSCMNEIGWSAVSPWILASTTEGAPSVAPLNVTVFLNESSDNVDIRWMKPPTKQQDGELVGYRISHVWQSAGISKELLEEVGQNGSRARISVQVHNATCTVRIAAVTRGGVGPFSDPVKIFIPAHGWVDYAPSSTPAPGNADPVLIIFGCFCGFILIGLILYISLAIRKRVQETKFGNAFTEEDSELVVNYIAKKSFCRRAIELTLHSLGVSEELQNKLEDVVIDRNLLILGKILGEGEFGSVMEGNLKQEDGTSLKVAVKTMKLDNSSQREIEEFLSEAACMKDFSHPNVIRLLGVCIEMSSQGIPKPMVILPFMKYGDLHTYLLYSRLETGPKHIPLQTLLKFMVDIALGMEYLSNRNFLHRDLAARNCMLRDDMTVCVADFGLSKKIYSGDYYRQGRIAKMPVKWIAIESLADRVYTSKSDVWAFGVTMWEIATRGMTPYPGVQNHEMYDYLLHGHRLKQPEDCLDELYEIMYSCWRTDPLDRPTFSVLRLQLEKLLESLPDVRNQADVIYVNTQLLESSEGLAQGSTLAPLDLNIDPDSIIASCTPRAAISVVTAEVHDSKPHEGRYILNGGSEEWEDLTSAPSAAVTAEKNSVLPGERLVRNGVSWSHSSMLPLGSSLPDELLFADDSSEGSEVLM

Fes = Fes (UniProt P07332); test: as above
Chain of Fes (P07332 whole entry, looked up): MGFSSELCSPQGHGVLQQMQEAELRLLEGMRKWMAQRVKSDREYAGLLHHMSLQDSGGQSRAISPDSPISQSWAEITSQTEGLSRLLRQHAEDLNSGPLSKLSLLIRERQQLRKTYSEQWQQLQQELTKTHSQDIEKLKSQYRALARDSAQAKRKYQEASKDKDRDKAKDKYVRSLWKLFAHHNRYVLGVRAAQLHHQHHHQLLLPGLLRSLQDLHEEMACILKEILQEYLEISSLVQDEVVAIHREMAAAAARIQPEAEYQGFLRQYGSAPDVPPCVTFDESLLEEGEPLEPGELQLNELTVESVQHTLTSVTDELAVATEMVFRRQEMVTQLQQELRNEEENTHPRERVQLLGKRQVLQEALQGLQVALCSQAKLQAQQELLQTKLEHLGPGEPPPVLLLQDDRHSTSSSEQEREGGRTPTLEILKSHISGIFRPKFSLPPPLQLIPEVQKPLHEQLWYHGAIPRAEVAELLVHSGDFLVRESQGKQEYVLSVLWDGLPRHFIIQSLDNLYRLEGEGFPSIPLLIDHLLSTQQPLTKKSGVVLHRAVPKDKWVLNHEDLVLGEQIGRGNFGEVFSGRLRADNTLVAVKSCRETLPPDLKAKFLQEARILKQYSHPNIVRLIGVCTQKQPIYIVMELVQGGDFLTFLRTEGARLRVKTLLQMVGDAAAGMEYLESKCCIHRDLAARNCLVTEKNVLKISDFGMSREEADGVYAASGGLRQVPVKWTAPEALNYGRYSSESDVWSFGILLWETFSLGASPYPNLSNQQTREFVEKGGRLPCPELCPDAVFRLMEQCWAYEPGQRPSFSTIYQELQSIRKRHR

Jak2 = Jak2 (UniProt O60674); test: as above
FGFR3 = FGFR3 (UniProt P22607); test: as above
c-Abl (mouse) = test: as above
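For SH2 binding enrichment of the phosphorylated peptide, bacterial display in this document: peptide library displayed on the E. coli surface as eCPX fusions, selected cells deep-sequenced, score is each peptide's frequency after selection divided by its frequency in the input.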
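For phosphorylation enrichment, bacterial display in this document: 11-residue human phosphosite peptides and single-mutation variants displayed on the E. coli surface, counted by deep sequencing, each peptide's frequency after selection divided by its frequency in the unselected input library; frequency after pTyr selection over input frequency; kinase dosed for 20-30% of maximal phosphorylation in three min.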

Chain of Hck (P08631 whole entry, looked up): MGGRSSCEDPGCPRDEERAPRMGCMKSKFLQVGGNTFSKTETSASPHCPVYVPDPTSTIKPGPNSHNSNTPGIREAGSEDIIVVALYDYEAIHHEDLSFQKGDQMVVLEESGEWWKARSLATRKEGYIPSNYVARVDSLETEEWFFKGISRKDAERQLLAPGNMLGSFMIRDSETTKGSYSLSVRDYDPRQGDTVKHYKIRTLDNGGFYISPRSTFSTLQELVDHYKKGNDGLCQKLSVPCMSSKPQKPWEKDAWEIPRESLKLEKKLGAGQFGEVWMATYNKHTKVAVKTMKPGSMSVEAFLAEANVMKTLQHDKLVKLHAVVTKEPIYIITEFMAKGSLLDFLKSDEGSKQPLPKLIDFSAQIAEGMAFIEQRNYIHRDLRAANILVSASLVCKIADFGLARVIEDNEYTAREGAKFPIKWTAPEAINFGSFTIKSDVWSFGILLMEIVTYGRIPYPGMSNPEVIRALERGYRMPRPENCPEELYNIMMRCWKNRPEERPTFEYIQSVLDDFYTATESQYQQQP

Sequence	SH2 binding enrichment (c-Src SH2)	SH2 binding enrichment (SHP2-C SH2)	SH2 binding enrichment (Grb2 SH2)	phosphorylation enrichment (Hck)	phosphorylation enrichment (Fer (mouse))	phosphorylation enrichment (EPHB1)	phosphorylation enrichment (c-Src)	phosphorylation enrichment (FGFR1)	phosphorylation enrichment (Fyn)	phosphorylation enrichment (EPHB2)	phosphorylation enrichment (AncSZ)	phosphorylation enrichment (MERTK)	phosphorylation enrichment (Fes)	phosphorylation enrichment (Jak2)	phosphorylation enrichment (FGFR3)	phosphorylation enrichment (c-Abl (mouse))
RGDTVYTVNRM [KBTBD13_Y404]	0.423	0.655	1.09	1.61	0.83	0.825	4.93	0.824	5.2	0.441	1.05	0.808	1.35	0.834	1.21	1.06
RGMVMYTSKDR [ZG16B_Y136]	0.648	0.584	0.697	0.614	0.413	0.623	0.533	0.523	0.493	0.597	0.941	0.528	0.857	0.744	0.645	0.428
RGNKEYKEEKR [LENG1_Y96_E97K]	0.975	1.42	1.25	0.425	0.303	0.369	0.398	0.606	0.399	0.423	0.462	0.392	0.861	0.511	0.735	0.688
RGNMYYENSYA [EGFR_Y113]	5.02	0.978	10.5	0.845	2.84	1.04	1.19	1.29	0.832	0.619	0.957	2.85	1.2	2.08	1.02	1.65
RGRKVYLEDGF [PRIM2_Y201]	0.435	0.353	1	0.852	1.13	0.662	1.11	0.749	0.698	0.649	1.04	1.15	0.911	0.808	0.851	1.29
RGRSTYYWPSP [GAGE12J_Y9_R13S]	0.373	0.472	0.647	0.949	0.699	0.994	1.23	1.49	0.938	0.871	2.12	6.32	0.885	0.656	1.01	0.647
RHFTGYRIELQ [INSR_Y818]	1.38	2.13	1.77	0.401	0.544	0.472	0.525	0.531	0.604	0.56	1.01	0.546	1.37	0.989	0.661	0.805
RHLQEYQDPLN [GFAP_Y349_L352P]	0.645	0.842	0.949	0.517	0.472	0.504	0.503	0.723	0.579	0.739	0.823	0.576	0.959	0.878	0.668	0.753
RHPFFFAPELL [ALB_Y174_Y174F_YF]	1.05	1.44	1.34	0.859	0.529	0.947	0.932	0.619	0.771	0.842	1.64	0.727	1.72	1.15	1.64	1.02
RHTRSYDFMEG [FGF7_Y56_YF]	1.92	1.2	0.944	0.857	0.794	0.293	0.82	0.591	0.823	0.792	0.848	1.13	1.19	0.852	0.726	1.3
RHTRSYDYMEG [FGF7_Y56]	3.83	1.06	1.33	0.716	0.533	0.534	0.389	0.7	0.561	0.92	0.609	0.628	0.958	0.513	0.529	0.552
RIFDFYSARKA [STOX1_Y858_YF]	0.529	0.538	0.75	1.33	0.72	1.1	0.645	0.82	0.849	0.847	1.21	0.644	1.59	0.729	0.979	1.04
RIVEIYSRRLQ [GCH1_Y175]	0.617	0.879	0.789	1.02	0.556	0.645	0.803	0.777	0.921	0.92	0.942	0.678	0.976	0.794	0.96	0.747
RKKEEYKMALY [F8_Y1990]	0.931	0.762	1.38	1.05	0.289	0.337	0.546	0.58	0.46	0.387	0.492	0.462	0.708	0.477	0.33	0.632
RKNAKYLLKGE [CDH5_Y82]	0.749	1.06	1.19	0.577	0.666	0.848	0.687	0.712	0.64	0.821	0.779	0.718	1.37	0.827	0.545	0.901
RKRQFYLYKGK [RSPO4_Y112_C107R]	0.378	0.428	0.965	0.358	0.494	0.343	0.44	0.437	0.503	0.615	0.613	0.602	0.432	0.228	0.4	0.296
RLAKRYLIWEC [SCN5A_Y694_Q692K]	0.704	0.654	0.911	0.505	0.626	0.607	0.486	0.64	0.375	0.604	1.15	0.503	1.06	0.852	0.812	0.771
